Patent US20110166062A1 (INDIANA UNIVERSITY RESEARCH AND TECHNOLOGY, published 2011)
*1 amine or outer side, *2 acyl side, *3 side chain or, on linkers, in order; H or OH if unused. Where no end group is shown, it is not given here. Side-chain parts run from the residue outwards. [ ]: non-standard residue; d: D form. The star is where a group is joined. γGlu = O=C(O)[C@H](CCC(=O)[*:2])N[*:1]; Palmitoyl = CCCCCCCCCCCCCCCC(=O)*; Myristoyl = CCCCCCCCCCCCCC(=O)*; Aib = CC(C)(N)C(=O)O

T1: GIP receptor (UniProt P48546 22-466)
T1 sequence (looked up): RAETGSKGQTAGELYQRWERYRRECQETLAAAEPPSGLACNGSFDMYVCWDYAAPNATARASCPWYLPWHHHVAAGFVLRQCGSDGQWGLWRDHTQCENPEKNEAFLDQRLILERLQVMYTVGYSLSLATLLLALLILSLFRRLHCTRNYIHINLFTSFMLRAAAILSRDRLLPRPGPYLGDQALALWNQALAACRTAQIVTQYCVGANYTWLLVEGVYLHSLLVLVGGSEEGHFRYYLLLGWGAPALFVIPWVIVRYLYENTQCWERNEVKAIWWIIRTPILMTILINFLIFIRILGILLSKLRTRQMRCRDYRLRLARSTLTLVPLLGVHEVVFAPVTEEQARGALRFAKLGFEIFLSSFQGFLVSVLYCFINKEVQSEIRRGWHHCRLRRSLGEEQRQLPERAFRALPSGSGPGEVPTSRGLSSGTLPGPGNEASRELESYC

B1: mt-367 (peptide)
peptide: Y[Aib]EGTFTSDYSIYLDKQAA[Aib]EFVNWLLAGGPSSGAPPPSK([γGlu-γGlu-Palmitoyl])-NH2
B2: mt-357 (peptide)
peptide: Y[Aib]QGTFISDYSIYLDKQAA[Aib]EFVNWLLAGGPSSGAPPPSK-NH2
modifications: N-terminus assumed
SMILES: CC[C@H](C)[C@H](NC(=O)[C@H](CO)NC(=O)[C@H](Cc1ccc(O)cc1)NC(=O)[C@H](CC(=O)O)NC(=O)[C@H](CO)NC(=O)[C@@H](NC(=O)[C@H](Cc1ccccc1)NC(=O)[C@@H](NC(=O)CNC(=O)[C@H](CCC(N)=O)NC(=O)C(C)(C)NC(=O)[C@@H](N)Cc1ccc(O)cc1)[C@@H](C)O)[C@@H](C)CC)C(=O)N[C@@H](Cc1ccc(O)cc1)C(=O)N[C@@H](CC(C)C)C(=O)N[C@@H](CC(=O)O)C(=O)N[C@@H](CCCCN)C(=O)N[C@@H](CCC(N)=O)C(=O)N[C@@H](C)C(=O)N[C@@H](C)C(=O)NC(C)(C)C(=O)N[C@@H](CCC(=O)O)C(=O)N[C@@H](Cc1ccccc1)C(=O)N[C@H](C(=O)N[C@@H](CC(N)=O)C(=O)N[C@@H](Cc1c[nH]c2ccccc12)C(=O)N[C@@H](CC(C)C)C(=O)N[C@@H](CC(C)C)C(=O)N[C@@H](C)C(=O)NCC(=O)NCC(=O)N1CCC[C@H]1C(=O)N[C@@H](CO)C(=O)N[C@@H](CO)C(=O)NCC(=O)N[C@@H](C)C(=O)N1CCC[C@H]1C(=O)N1CCC[C@H]1C(=O)N1CCC[C@H]1C(=O)N[C@@H](CO)C(=O)N[C@@H](CCCCN)C(N)=O)C(C)C
B3: mt-354 (peptide)
peptide: Y[Aib]EGTFTSDYSIYLDKQAA[Aib]EFVNWLLAGGPSSGAPPPSK(Myristoyl)C-NH2
modifications: also: homodimer: two monomers linked by a disulfide bond between their C-terminal Cys41 residues
B4: mt-358 (peptide)
peptide: Y[Aib]QGTFISDYSIYLDKQAA[Aib]EFVNWLLAGGPSSGAPPPSK(Palmitoyl)-NH2
modifications: N-terminus assumed
SMILES: CCCCCCCCCCCCCCCC(=O)NCCCC[C@H](NC(=O)[C@H](CO)NC(=O)[C@@H]1CCCN1C(=O)[C@@H]1CCCN1C(=O)[C@@H]1CCCN1C(=O)[C@H](C)NC(=O)CNC(=O)[C@H](CO)NC(=O)[C@H](CO)NC(=O)[C@@H]1CCCN1C(=O)CNC(=O)CNC(=O)[C@H](C)NC(=O)[C@H](CC(C)C)NC(=O)[C@H](CC(C)C)NC(=O)[C@H](Cc1c[nH]c2ccccc12)NC(=O)[C@H](CC(N)=O)NC(=O)[C@@H](NC(=O)[C@H](Cc1ccccc1)NC(=O)[C@H](CCC(=O)O)NC(=O)C(C)(C)NC(=O)[C@H](C)NC(=O)[C@H](C)NC(=O)[C@H](CCC(N)=O)NC(=O)[C@H](CCCCN)NC(=O)[C@H](CC(=O)O)NC(=O)[C@H](CC(C)C)NC(=O)[C@H](Cc1ccc(O)cc1)NC(=O)[C@@H](NC(=O)[C@H](CO)NC(=O)[C@H](Cc1ccc(O)cc1)NC(=O)[C@H](CC(=O)O)NC(=O)[C@H](CO)NC(=O)[C@@H](NC(=O)[C@H](Cc1ccccc1)NC(=O)[C@@H](NC(=O)CNC(=O)[C@H](CCC(N)=O)NC(=O)C(C)(C)NC(=O)[C@@H](N)Cc1ccc(O)cc1)[C@@H](C)O)[C@@H](C)CC)[C@@H](C)CC)C(C)C)C(N)=O

What was measured:
Assay in all cases: cell-based or functional assay
[1] = biological target: glucagon receptor (UniProt P47871 26-477, limits assumed)
[2] = biological target: GLP-1 receptor (UniProt P43220 24-463, limits assumed)
[3] = biological target: T1, GIP receptor

Sequence of glucagon receptor (P47871 26-477 limits assumed): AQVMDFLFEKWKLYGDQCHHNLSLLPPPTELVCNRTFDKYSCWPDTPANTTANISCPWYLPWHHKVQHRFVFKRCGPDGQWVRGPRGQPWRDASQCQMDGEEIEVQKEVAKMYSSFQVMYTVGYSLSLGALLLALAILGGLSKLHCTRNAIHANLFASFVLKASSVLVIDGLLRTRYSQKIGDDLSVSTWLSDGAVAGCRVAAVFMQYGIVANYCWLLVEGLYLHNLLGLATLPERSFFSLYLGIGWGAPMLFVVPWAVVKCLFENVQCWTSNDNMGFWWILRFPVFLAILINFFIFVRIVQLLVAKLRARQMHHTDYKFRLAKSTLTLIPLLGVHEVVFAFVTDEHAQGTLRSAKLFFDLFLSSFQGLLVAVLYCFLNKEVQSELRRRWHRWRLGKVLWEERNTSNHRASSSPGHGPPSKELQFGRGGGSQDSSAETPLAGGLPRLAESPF

Binder	EC50, nM; Glucagon Receptor [1] [nM]	EC50, nM; GLP-1 Receptor [2] [nM]	EC50, nM; GIP Receptor [3] [nM]	relative activity; Glucagon Receptor [1] [%]	relative activity; GLP-1 Receptor [2] [%]	relative activity; GIP Receptor [3] [%]
B1	0.82	0.0039	0.0014			
B2	0.042	1.25	0.0066	261	0.86	206
B3	2.61	0.0088	0.0046	1.45	137	91.7
B4	0.0087	0.083	0.0045	1270	13	306
